Columns and labels:
Details in all cases: protein: recombinant; tags: C-terminal Cys added, labeled with Alexa 488 C5-maleimide; blunt
[1] = target: T1, EngHD (Engrailed homeodomain, DNA-binding domain) (Drosophila melanogaster, UniProt P02836 454-513); assay: FCS; 50 mM ionic strength; FCS, ~1 nM Alexa 488-EngHD with unlabeled dsDNA titrated; ionic strength 50 mM (NaCl) unless stated; buffer, pH and temperature not in the material
T1 sequence: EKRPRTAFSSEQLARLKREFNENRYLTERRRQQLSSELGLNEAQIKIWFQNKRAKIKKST

[2] = target: T1, EngHD (Engrailed homeodomain, …); assay: as above; remark: listed apart in the source
[3] = target: T1, EngHD (Engrailed homeodomain, …); assay: as above; remark: listed apart in the source
[4] = target: T1, EngHD (Engrailed homeodomain, …); assay: as above; remark: listed apart in the source
[5] = target: T1, EngHD (Engrailed homeodomain, …); assay: FCS; minimal difference from N7; FCS, ~1 nM Alexa 488-EngHD with unlabeled dsDNA titrated; ionic strength 50 mM (NaCl) unless stated; buffer, pH and temperature not in the material
[6] = target: T1, EngHD (Engrailed homeodomain, …); assay: FCS; affinity unchanged vs N8; FCS, ~1 nM Alexa 488-EngHD with unlabeled dsDNA titrated; ionic strength 50 mM (NaCl) unless stated; buffer, pH and temperature not in the material
[7] = target: T1, EngHD (Engrailed homeodomain, …); assay: FCS; 50 mM ionic strength; FCS, ~1 nM Alexa 488-EngHD with unlabeled dsDNA titrated; ionic strength 50 mM (NaCl) unless stated; buffer, pH and temperature not in the material; remark: listed apart in the source
[8] = target: T1, EngHD (Engrailed homeodomain, …); assay: as above; remark: listed apart in the source

B1: 38 bp TAATTG (dsDNA)
DNA 1: AAAAGCCATCAATCTATAATTGCAATCTAACTGTGCCT
DNA 2: AGGCACAGTTAGATTGCAATTATAGATTGATGGCTTTT
Kd [1]: 7.26 -log10 M

B2: 75 bp TAATTG (m2) (dsDNA)
DNA 1: GCCCGAAATAAATCTGGCCGAAAAGCCATCAATCTATAATTGCAATCTAACTGTGCCTCGGTTTATACCTCCAAC
DNA 2: GTTGGAGGTATAAACCGAGGCACAGTTAGATTGCAATTATAGATTGATGGCTTTTCGGCCAGATTTATTTCGGGC
Kd [2]: 7.44 -log10 M

B3: 75 bp GAATTG (dsDNA)
DNA 1: GCCCGAAATAAATCTGGCCGAAAAGCCATCAATCTAGAATTGCAATCTAACTGTGCCTCGGTTTATACCTCCAAC
DNA 2: GTTGGAGGTATAAACCGAGGCACAGTTAGATTGCAATTCTAGATTGATGGCTTTTCGGCCAGATTTATTTCGGGC
binding signal [3]: 19 fold lower affinity than TAATTA (N3)

B4: 75 bp CGTGTT (m4) (dsDNA)
DNA 1: GCCCGAAATAAATCTGGCCGAAAAGCCATCAATCTACGTGTTCAATCTAACTGTGCCTCGGTTTATACCTCCAAC
DNA 2: GTTGGAGGTATAAACCGAGGCACAGTTAGATTGAACACGTAGATTGATGGCTTTTCGGCCAGATTTATTTCGGGC
binding signal [3]: 22 fold lower affinity than TAATTA (N3)

B5: 150 bp TAATTG (m6) (dsDNA)
DNA 1: TTCTTAACCAAATTGAATTCTCGCCACCGATCGTGTTCGCCCGAAATAAATCTGGCCGAAAAGCCATCAATCTATAATTGCAATCTAACTGTGCCTCGGTTTATACCTCCAACTGCCGTTCACCGAAAAGGCCGACAGTTTTCCGACAAA
DNA 2: TTTGTCGGAAAACTGTCGGCCTTTTCGGTGAACGGCAGTTGGAGGTATAAACCGAGGCACAGTTAGATTGCAATTATAGATTGATGGCTTTTCGGCCAGATTTATTTCGGGCGAACACGATCGGTGGCGAGAATTCAATTTGGTTAAGAA
binding signal [4]: ~2 fold higher affinity than 75 bp TAATTG (N2)

B6: 75 bp CGTGTT shuffled (m5) (dsDNA)
DNA 1: GCTCGACATAGATCTGACTGACATGCTATCAGTCTACGTGTTCAGTCTAGCTGTGCATCGATCTATACATCTAGC
DNA 2: GCTAGATGTATAGATCGATGCACAGCTAGACTGAACACGTAGACTGATAGCATGTCAGTCAGATCTATGTCGAGC
binding result [5]: binds

B7: 150 bp TAATTG shuffled (m7) (dsDNA)
DNA 1: TACTCATCGATACTCAGTACTCGCGACGCATCGTGTACGCGCGACATACATCTCACTGATACGCGATCACTCTATAATTGCACTCTATCTGTGCATCGCTCTATAGCTCTATCTGCAGTACACTGATATGACAGACAGTATGCTCACATA
DNA 2: TATGTGAGCATACTGTCTGTCATATCAGTGTACTGCAGATAGAGCTATAGAGCGATGCACAGATAGAGTGCAATTATAGAGTGATCGCGTATCAGTGAGATGTATGTCGCGCGTACACGATGCGTCGCGAGTACTGAGTATCGATGAGTA
binding result [6]: binds

B8: 150 bp TAATTG half original/half shuffled (m8) (dsDNA)
DNA 1: TACTCATCGATACTCAGTACTCGCGACGCATCGTGTACGCCCGAAATAAATCTGGCCGAAAAGCCATCAATCTATAATTGCAATCTAACTGTGCCTCGGTTTATACCTCCAACTGCAGTACACTGATATGACAGACAGTATGCTCACATA
DNA 2: TATGTGAGCATACTGTCTGTCATATCAGTGTACTGCAGTTGGAGGTATAAACCGAGGCACAGTTAGATTGCAATTATAGATTGATGGCTTTTCGGCCAGATTTATTTCGGGCGTACACGATGCGTCGCGAGTACTGAGTATCGATGAGTA
binding result [6]: binds

B9: 75 bp TAATTA (m1) (dsDNA)
DNA 1: GCCCGAAATAAATCTGGCCGAAAAGCCATCAATCTATAATTACAATCTAACTGTGCCTCGGTTTATACCTCCAAC
DNA 2: GTTGGAGGTATAAACCGAGGCACAGTTAGATTGTAATTATAGATTGATGGCTTTTCGGCCAGATTTATTTCGGGC
Kd [7]: 8.43 -log10 M

B10: 75 bp TAATTT (dsDNA)
DNA 1: GCCCGAAATAAATCTGGCCGAAAAGCCATCAATCTATAATTTCAATCTAACTGTGCCTCGGTTTATACCTCCAAC
DNA 2: GTTGGAGGTATAAACCGAGGCACAGTTAGATTGAAATTATAGATTGATGGCTTTTCGGCCAGATTTATTTCGGGC
Kd [2]: 7.79 -log10 M

B11: 75 bp TAATTG high G/C (m3) (dsDNA)
DNA 1: CCCCCTCCCACCCCTCCACCCCCTCCCCTCCCCCCCTAATTGCCCTCCCCTCCCCCACCCCCTCCCCCACCCCCT
DNA 2: AGGGGGTGGGGGAGGGGGTGGGGGAGGGGAGGGCAATTAGGGGGGGAGGGGAGGGGGTGGAGGGGTGGGAGGGGG
Kd [8]: ~700 nM

B12: 75 bp TATATA (dsDNA)
DNA 1: GCCCGAAATAAATCTGGCCGAAAAGCCATCAATCTATATATACAATCTAACTGTGCCTCGGTTTATACCTCCAAC
DNA 2: GTTGGAGGTATAAACCGAGGCACAGTTAGATTGTATATATAGATTGATGGCTTTTCGGCCAGATTTATTTCGGGC
binding signal [3]: ~10 fold lower affinity than TAATTA (N3)

Reference: publication PMC6987225, “Eukaryotic transcription factors can track and control their target genes using DNA antennas”
